Results on one molecule are retold here after US20250092426, “CAS ENDONUCLEASES AND RELATED METHODS” (Flagship Pioneering Innovations VII, LLC, published 2025).

This series concerns the target T1, CasEnd-37 (synthetic construct).
T1 chain: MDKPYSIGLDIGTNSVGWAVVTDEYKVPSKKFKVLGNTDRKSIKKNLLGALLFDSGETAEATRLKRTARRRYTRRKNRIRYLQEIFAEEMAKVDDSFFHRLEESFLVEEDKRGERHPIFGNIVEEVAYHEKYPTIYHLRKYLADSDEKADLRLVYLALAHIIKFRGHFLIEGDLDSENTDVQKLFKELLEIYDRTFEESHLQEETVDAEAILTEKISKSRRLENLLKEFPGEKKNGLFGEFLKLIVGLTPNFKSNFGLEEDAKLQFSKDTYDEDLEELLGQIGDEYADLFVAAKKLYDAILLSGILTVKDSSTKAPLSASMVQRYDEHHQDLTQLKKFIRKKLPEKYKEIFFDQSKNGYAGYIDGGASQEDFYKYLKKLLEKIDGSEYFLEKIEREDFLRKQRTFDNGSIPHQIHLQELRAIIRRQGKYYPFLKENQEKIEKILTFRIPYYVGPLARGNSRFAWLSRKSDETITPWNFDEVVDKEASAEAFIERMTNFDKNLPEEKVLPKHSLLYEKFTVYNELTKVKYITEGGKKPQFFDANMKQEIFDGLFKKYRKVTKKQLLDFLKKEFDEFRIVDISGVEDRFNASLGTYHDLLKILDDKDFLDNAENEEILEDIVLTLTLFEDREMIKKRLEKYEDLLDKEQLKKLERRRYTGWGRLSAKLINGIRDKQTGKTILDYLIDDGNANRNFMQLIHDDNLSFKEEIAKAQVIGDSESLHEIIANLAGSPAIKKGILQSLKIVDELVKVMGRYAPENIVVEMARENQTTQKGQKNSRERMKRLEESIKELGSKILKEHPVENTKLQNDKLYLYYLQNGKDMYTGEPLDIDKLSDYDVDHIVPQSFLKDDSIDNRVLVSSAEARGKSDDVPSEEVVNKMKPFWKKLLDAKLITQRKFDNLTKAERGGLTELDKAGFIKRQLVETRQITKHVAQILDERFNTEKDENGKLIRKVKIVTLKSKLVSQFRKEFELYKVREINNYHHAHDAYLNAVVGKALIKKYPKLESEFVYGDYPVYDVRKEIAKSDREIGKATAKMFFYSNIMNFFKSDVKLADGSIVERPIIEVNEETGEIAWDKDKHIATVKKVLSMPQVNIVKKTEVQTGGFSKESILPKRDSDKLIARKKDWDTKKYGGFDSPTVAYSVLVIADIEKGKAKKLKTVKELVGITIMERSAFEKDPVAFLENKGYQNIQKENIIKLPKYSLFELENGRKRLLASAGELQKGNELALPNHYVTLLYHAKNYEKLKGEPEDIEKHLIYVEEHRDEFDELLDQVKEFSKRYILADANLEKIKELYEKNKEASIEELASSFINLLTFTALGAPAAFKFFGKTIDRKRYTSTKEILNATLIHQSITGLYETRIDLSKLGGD
The series is described as follows: cell_activity; +++; HEK293T; PAM not stated. Here is the method: The ability of the candidate endonucleases, including endonucleases 1-38 (CasEnds 1-38) (set forth in Table 1 and SEQ ID NOS: 1-38, respectively), to mediate target nucleic acid editing was assessed utilizing a blue fluorescent protein (BFP) to green fluorescent protein (GFP) conversion assay, wherein programmed nucleotide editing of the BFP gene was measured by the expression of GFP (signifying the conversion of […] via the programmed nucleotide edit in the BFP gene). The conversion assay was conducted utilizing the reverse transcriptase-based system (as described above in Example 2) comprising a template RNA (designed to convert BFP to GFP) and a fusion protein comprising a retroviral reverse transcriptase and the individual subject Cas endonuclease. The amino acid sequence of the base portion of the fusion protein (without the individual subject Cas endonuclease) is set forth in Table 7 (SEQ ID NO: 43).
Briefly, 200 ng of plasmid DNA encoding the subject fusion protein (containing one of the subject CasEnds) and 200 ng of template RNA (in plasmid format) were added to 25 μL SF buffer containing 250,000 HEK293T BFP-expressing cells. Nucleofection was mediated utilizing program DS-150. The day of nucleofection was marked as day 0. At day 4, the cells were harvested and analyzed by flow cytometry to assess the level of BFP and GFP expression in HEK293T cells. Cells having GFP signal were defined as having undergone a successful editing event, and the percent of cells that were GFP+ on day 4 was used to determine the performance of each Cas endonuclease.

B1: BFP-to-GFP template RNA ; BFP reporter protospacer (ssRNA ; dsDNA)
RNA: GCCGAAGCACUGCACGCCGUGUUUUAGAGCUAGAAAUAGCAAGUUAAAAUAAGGCUAGUCCGUUAUCAACUUGAAAAAGUGGCACCGAGUCGGUGCACCCUGACGUACGGCGUGCAGUGCUU
DNA 1: GCCGAAGCACTGCACGCCGT
DNA 2: ACGGCGTGCAGTGCTTCGGC
B1: the activity was ≥ 100 % of reference.
